Two molecules from article PMC4579851 can be followed below.

In the experiment the target is human ST2.Fc (extracellular domain of ST2 fused to Fc) (human) (UniProt Q01638).
Chain of UniProt Q01638 (Q01638 19-328): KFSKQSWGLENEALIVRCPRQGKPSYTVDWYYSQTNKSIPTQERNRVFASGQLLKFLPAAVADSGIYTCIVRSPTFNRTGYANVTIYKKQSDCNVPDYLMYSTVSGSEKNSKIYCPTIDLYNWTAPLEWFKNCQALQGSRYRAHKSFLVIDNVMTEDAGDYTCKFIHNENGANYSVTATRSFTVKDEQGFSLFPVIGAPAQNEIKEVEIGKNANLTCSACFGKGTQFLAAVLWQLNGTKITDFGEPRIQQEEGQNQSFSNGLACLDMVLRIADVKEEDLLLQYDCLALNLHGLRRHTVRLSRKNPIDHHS

Molecule “human IL-33 (amino acids 112-270), reduced form (from UniProt O95760 112-270) (ligand)” returned an EC50 in a short duration signalling assay (NFκB p65/RelA translocation in HUVEC) of 0.15 nM.

B1: human IL-33 (112-270) complete Cys→Ser mutant (C208S, C227S, C232S and C259S) (ligand)
chain: SITGISPITEYLASLSTYNDQSITFALEDESYEIYVEDLKKDEKKDKVLLSYYESQHPSNESGDGVDGKMLMVTLSPTKDFWLHANNKEHSVELHKSEKPLPDQAFFVLHNMHSNSVSFESKTDPGVFIGVKDNHLALIKVDSSENLSTENILFKLSET
The molecule B1 showed an EC50 in a short duration signalling assay (NFκB p65/RelA translocation in HUVEC) of 0.15 nM.
